# Results reported in the Human Domainome abundance scans (Beltran et al. 2025).
# ± gives the uncertainty stated by the source.
# B1: Lysine-specific demethylase 2B, residues 656 to 722; numbered along this chain, Q8NHM5 (parent)
# chain: LPHTAVCLVCGEAGKEDTVEEEEGKFNLMLMECSICNEIIHPGCLKIKESEGVVNDELPNCWECPKC
# Variants of: B1
# Assay: abundance fitness (aPCA) (normalised: wild type 0, dead -1); higher = more abundant; growth selection in yeast, the domain comes from the species named
# Conditions: Homo sapiens
row,Variant,abundance fitness
1,L8S,-0.34 ± 0.17
2,L8K,0.146 ± 0.13
3,L8M,0.172 ± 0.29
4,L8P,-0.433 ± 0.24
5,L8D,-0.573 ± 0.24
6,L8H,-0.281 ± 0.3
7,L8G,-0.588 ± 0.17
8,L8R,0.104 ± 0.14
9,L8I,0.099 ± 0.24
10,L8E,-0.584 ± 0.23
11,C7Y,-1.04 ± 0.2
12,C7R,-0.908 ± 0.31
13,C7A,-0.691 ± 0.28
14,C7T,-0.491 ± 0.41
15,C7D,-0.902 ± 0.34
16,G11Q,0.129 ± 0.1
17,G11A,-0.139 ± 0.13
18,G11H,-0.362 ± 0.27
19,G11I,-0.828 ± 0.49
20,G11M,-0.308 ± 0.087
21,G11E,-0.174 ± 0.1
22,G11F,-0.063 ± 0.14
23,G11L,0.046 ± 0.074
24,G11T,-0.354 ± 0.11

row,Variant,abundance fitness
1,G11S,-0.113 ± 0.11
2,G11N,-0.382 ± 0.24
3,G11C,-0.541 ± 0.19
4,G11W,-0.533 ± 0.12
5,G11R,-0.051 ± 0.06
6,G11P,-0.626 ± 0.15
7,G11K,0.222 ± 0.096
8,T18A,-0.514 ± 0.13
9,T18C,-0.213 ± 0.14
10,T18D,-0.527 ± 0.23
11,C10N,-0.259 ± 0.33
12,C10A,-0.37 ± 0.098
13,C10Q,-0.528 ± 0.15
14,C10P,-0.517 ± 0.23
15,C10V,-1 ± 0.25
16,C10K,-0.124 ± 0.12
17,C10I,-1.04 ± 0.27
18,C10Y,-0.66 ± 0.39
19,C10T,-0.244 ± 0.094
20,C10F,-0.868 ± 0.19
21,C10R,-0.53 ± 0.087
22,C10H,-0.828 ± 0.31
23,C10M,-0.613 ± 0.17
24,C10G,-0.277 ± 0.083

row,Variant,abundance fitness
1,C10W,-1.14 ± 0.21
2,C10L,-1.01 ± 0.14
3,C10E,-0.329 ± 0.096
4,C10S,-0.332 ± 0.076
5,E16R,-0.148 ± 0.083
6,E16G,-0.137 ± 0.086
7,E16S,-0.204 ± 0.13
8,E16F,-0.497 ± 0.22
9,E16V,-0.258 ± 0.094
10,E16M,-0.148 ± 0.13
11,E16C,-0.556 ± 0.21
12,E16Y,-0.786 ± 0.23
13,E16A,-0.378 ± 0.15
14,E16I,-0.467 ± 0.22
15,E16P,-0.043 ± 0.1
16,E16T,0.167 ± 0.16
17,E16W,-0.638 ± 0.24
18,E16L,-0.283 ± 0.071
19,E16Q,0.022 ± 0.12
20,E16D,-0.609 ± 0.19
21,E16N,-0.646 ± 0.29
22,A13N,-0.618 ± 0.23
23,A13H,-0.437 ± 0.24
24,A13F,0.001 ± 0.14

row,Variant,abundance fitness
1,A13D,-0.138 ± 0.15
2,A13R,0.443 ± 0.066
3,A13T,-0.022 ± 0.13
4,A13W,-0.228 ± 0.088
5,A13S,0.177 ± 0.073
6,A13C,-0.297 ± 0.14
7,A13I,0.169 ± 0.17
8,A13Q,0.471 ± 0.11
9,A13M,0.286 ± 0.1
10,A13E,0.214 ± 0.097
11,A13L,-0.077 ± 0.075
12,A13K,0.175 ± 0.14
13,A13Y,-0.117 ± 0.14
14,A13V,0.085 ± 0.075
15,A13G,0.387 ± 0.058
16,D17S,-0.083 ± 0.081
17,D17I,0.068 ± 0.22
18,D17P,-0.168 ± 0.15
19,D17F,-0.017 ± 0.16
20,D17L,-0.369 ± 0.09
21,D17Y,-0.315 ± 0.13
22,D17Q,-0.091 ± 0.12
23,D17C,0.039 ± 0.17
24,D17V,-0.088 ± 0.062

row,Variant,abundance fitness
1,D17N,-0.035 ± 0.31
2,D17K,-0.174 ± 0.16
3,D17M,0.392 ± 0.15
4,D17R,-0.066 ± 0.082
5,D17A,-0.173 ± 0.092
6,D17H,0.099 ± 0.17
7,D17E,-0.069 ± 0.081
8,D17W,-0.553 ± 0.12
9,D17G,0.104 ± 0.091
10,D17T,-0.194 ± 0.07
11,K15H,-0.65 ± 0.4
12,K15M,0.12 ± 0.092
13,K15E,-0.175 ± 0.17
14,K15L,-0.154 ± 0.067
15,K15C,-0.611 ± 0.14
16,K15F,-0.368 ± 0.14
17,K15T,-0.202 ± 0.13
18,K15Q,-0.378 ± 0.17
19,K15N,-0.751 ± 0.37
20,K15W,0.017 ± 0.18
21,K15R,-0.355 ± 0.11
22,K15D,-1.01 ± 0.29
23,K15G,-0.206 ± 0.1
24,K15P,-0.609 ± 0.11

row,Variant,abundance fitness
1,K15I,-0.305 ± 0.16
2,K15Y,-0.583 ± 0.22
3,K15A,-0.525 ± 0.11
4,V9E,-0.053 ± 0.15
5,V9Q,-0.635 ± 0.27
6,V9N,0.239 ± 0.3
7,V9T,0.127 ± 0.1
8,V9R,-0.297 ± 0.1
9,V9C,-0.817 ± 0.26
10,V9I,0.226 ± 0.081
11,V9F,-0.257 ± 0.24
12,V9P,-0.707 ± 0.14
13,V9S,-0.1 ± 0.12
14,V9A,-0.042 ± 0.099
15,V9L,-0.126 ± 0.083
16,V9K,0.088 ± 0.085
17,V9M,-0.049 ± 0.12
18,V9W,-0.727 ± 0.45
19,V9G,-0.273 ± 0.1
20,V9D,-0.287 ± 0.084
21,G14S,-0.043 ± 0.081
22,G14C,-1.04 ± 0.28
23,G14K,-0.229 ± 0.19
24,G14M,-0.172 ± 0.14

row,Variant,abundance fitness
1,G14N,-0.003 ± 0.096
2,G14F,0.104 ± 0.18
3,G14W,-0.635 ± 0.095
4,G14L,-0.508 ± 0.094
5,G14T,-0.24 ± 0.097
6,G14R,0.04 ± 0.069
7,G14I,-0.418 ± 0.2
8,G14A,-0.428 ± 0.1
9,G14Q,-0.009 ± 0.11
10,G14V,-0.139 ± 0.082
11,G14E,-0.395 ± 0.17
12,E12R,-0.016 ± 0.06
13,E12A,-0.139 ± 0.081
14,E12M,0.089 ± 0.097
15,E12G,0.099 ± 0.073
16,E12I,-0.357 ± 0.23
17,E12V,-0.303 ± 0.11
18,E12T,0.045 ± 0.073
19,E12Q,0.078 ± 0.1
20,E12W,-0.224 ± 0.085
21,E12P,-0.458 ± 0.12
22,E12N,-0.365 ± 0.17
23,E12C,-0.159 ± 0.13
